Results on one substance are retold here after paper PMC7537385.

In the experiment the target is Exoc7-sfGFP (mouse, endogenously tagged) (mouse (endogenous in normal murine mammary gland cells)) (UniProt O35250). Kind of experiment: co-IP.
Sequence of UniProt O35250 (O35250 whole entry): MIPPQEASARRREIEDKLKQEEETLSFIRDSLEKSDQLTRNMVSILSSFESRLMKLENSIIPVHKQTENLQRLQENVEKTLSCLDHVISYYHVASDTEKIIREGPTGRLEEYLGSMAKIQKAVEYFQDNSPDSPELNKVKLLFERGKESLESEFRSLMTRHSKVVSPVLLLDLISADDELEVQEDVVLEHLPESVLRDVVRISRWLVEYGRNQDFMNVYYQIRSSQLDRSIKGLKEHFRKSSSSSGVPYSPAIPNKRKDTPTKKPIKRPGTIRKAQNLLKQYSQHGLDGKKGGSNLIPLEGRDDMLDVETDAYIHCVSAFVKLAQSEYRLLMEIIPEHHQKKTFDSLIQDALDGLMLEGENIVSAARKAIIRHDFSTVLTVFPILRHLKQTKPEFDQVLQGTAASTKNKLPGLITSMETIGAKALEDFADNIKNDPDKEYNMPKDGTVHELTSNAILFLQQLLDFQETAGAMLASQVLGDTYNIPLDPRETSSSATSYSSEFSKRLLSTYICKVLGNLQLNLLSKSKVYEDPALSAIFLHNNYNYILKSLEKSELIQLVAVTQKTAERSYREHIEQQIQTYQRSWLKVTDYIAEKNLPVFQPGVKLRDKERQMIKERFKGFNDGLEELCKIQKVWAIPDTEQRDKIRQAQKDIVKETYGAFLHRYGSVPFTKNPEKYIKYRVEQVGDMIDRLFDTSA

With “Exoc2 truncated, ~48-kD N-terminal fragment (mouse) (domain or fragment)”, the percent coprecipitated with Exoc7-GFP was determined as 53%.
